Drawing on doi:10.1101/2024.12.23.630085, “Accurate sequence-to-affinity models for SH2 domains from multi-round peptide binding assays coupled with free-energy regression” (bioRxiv, 2025), this text covers Kd for eleven molecules.

Non-standard residues stand in square brackets, D forms with d. pY = N[C@@H](Cc1ccc(OP(=O)(O)O)cc1)C(=O)O

One may read the Kd as the concentration at which binding is half-saturated.

Holding throughout (conditions): both partners purified
The target in one experiment is T1, Fyn SH2 domain (142-248) (human, UniProt P06241 142-248, biotin (on the AviTag)).
T1 construct: SH2 domain of human Fyn kinase, residues 142-248; source: E. coli C43(DE3) with BirA helper plasmid, purified (HisTrap, anion exchange, Ulp1 cleavage, SEC); not shown: His6-SUMO, N-terminal, cleaved; AviTag, C-terminal, kept
The experiment in a line: fluorescence polarisation; competition mode; unlabelled phosphopeptide against 0.4 nM FITC-Ahx-GDG-pY-EEISPLLL-NH2 and 4.125 nM Fyn SH2, as printed (Tables S3 and S5).

The target of another experiment is T2, Grb2 SH2 domain (UniProt P62993 60-152, biotin (biotinylated SH2 domain of the selection)).
T2 construct: SH2 domain of the adapter protein Grb2; source: purified
The experiment in a line: fluorescence polarisation; competition mode; unlabelled phosphopeptide against 30 nM FITC-Ahx-FDDPS(pY)VNVQN and 123 nM Grb2 SH2 (Table S3).

For the next experiment, the target named is T3, Lyn SH2 domain (121-228) (human, UniProt P07948 121-228, biotin (on the AviTag)).
T3 construct: source: E. coli C43(DE3) with BirA helper plasmid, purified (HisTrap, anion exchange, Ulp1 cleavage, SEC); not shown: His6-SUMO, N-terminal, cleaved; AviTag, C-terminal, kept
The experiment in a line: fluorescence polarisation; competition mode; unlabelled phosphopeptide against 30 nM FITC-Ahx-GDG-pY-EEISPLLL-NH2 and 106.5 nM Lyn SH2 (Table S3). For orientation: Fluorescence polarisation rises when a labelled molecule tumbles more slowly, as on binding a larger partner.

The target in the next experiment is T4, c-Src SH2 domain (UniProt P12931-1 151-248, biotin (biotinylated SH2 domain of the selection)).
T4 construct: SH2 domain of c-Src kinase; source: purified
The experiment in a line: fluorescence polarisation; competition mode; unlabelled phosphopeptide against 30 nM FITC-Ahx-GDG-pY-EEISPLLL-NH2 and 122.745 nM c-Src SH2 (123.745 to 125.745 in three rows; Table S3).

T1 sequence (P06241 142-248): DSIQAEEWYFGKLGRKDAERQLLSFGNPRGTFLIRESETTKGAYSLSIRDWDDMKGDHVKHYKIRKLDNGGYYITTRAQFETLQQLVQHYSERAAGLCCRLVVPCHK
T2 sequence (P62993 60-152): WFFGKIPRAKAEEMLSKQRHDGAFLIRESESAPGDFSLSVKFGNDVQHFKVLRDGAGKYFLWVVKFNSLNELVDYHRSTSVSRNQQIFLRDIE
T3 sequence (P07948 121-228): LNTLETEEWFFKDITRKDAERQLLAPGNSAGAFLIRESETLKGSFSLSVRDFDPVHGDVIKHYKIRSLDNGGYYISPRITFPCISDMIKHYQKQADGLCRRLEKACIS

B1: ACTA1 pY171 (peptide)
peptide: Ac-QPIFEG[pY]ALPHAG-NH2
SMILES: CC[C@H](C)[C@H](NC(=O)[C@@H]1CCCN1C(=O)[C@H](CCC(N)=O)NC(C)=O)C(=O)N[C@@H](Cc1ccccc1)C(=O)N[C@@H](CCC(=O)O)C(=O)NCC(=O)N[C@@H](Cc1ccc(OP(=O)(O)O)cc1)C(=O)N[C@@H](C)C(=O)N[C@@H](CC(C)C)C(=O)N1CCC[C@H]1C(=O)N[C@@H](Cc1c[nH]cn1)C(=O)N[C@@H](C)C(=O)NCC(N)=O
notes: flank added to the 11-residue stretch (surmised: last residue of the library's constant GQSGQ); ACTA1, human, around pY171; flank added to the 11-residue stretch (surmised: first residue of the library's constant GGQSG); also called ACTA1 pTyr Y171; source: synthetic peptide (SynPeptide, China)
On to B1, for which binding with Fyn SH2 domain (142-248) was put at a Kd of 47.3 nM.

B2: CBS pY308 (peptide)
peptide: Ac-QVEGIG[pY]DFIPTG-NH2
SMILES: CC[C@H](C)[C@H](NC(=O)CNC(=O)[C@H](CCC(=O)O)NC(=O)[C@@H](NC(=O)[C@H](CCC(N)=O)NC(C)=O)C(C)C)C(=O)NCC(=O)N[C@@H](Cc1ccc(OP(=O)(O)O)cc1)C(=O)N[C@@H](CC(=O)O)C(=O)N[C@@H](Cc1ccccc1)C(=O)N[C@H](C(=O)N1CCC[C@H]1C(=O)N[C@H](C(=O)NCC(N)=O)[C@@H](C)O)[C@@H](C)CC
notes: flank added to the 11-residue stretch (surmised: last residue of the library's constant GQSGQ); CBS, human, around pY308; flank added to the 11-residue stretch (surmised: first residue of the library's constant GGQSG); source: synthetic peptide (SynPeptide, China)
Turning to B2, the dissociation constant Kd with Fyn SH2 domain (142-248) stood at 126 nM.

B3: CBS pY308 G307S (peptide)
peptide: Ac-QVEGIS[pY]DFIPTG-NH2
SMILES: CC[C@H](C)[C@H](NC(=O)CNC(=O)[C@H](CCC(=O)O)NC(=O)[C@@H](NC(=O)[C@H](CCC(N)=O)NC(C)=O)C(C)C)C(=O)N[C@@H](CO)C(=O)N[C@@H](Cc1ccc(OP(=O)(O)O)cc1)C(=O)N[C@@H](CC(=O)O)C(=O)N[C@@H](Cc1ccccc1)C(=O)N[C@H](C(=O)N1CCC[C@H]1C(=O)N[C@H](C(=O)NCC(N)=O)[C@@H](C)O)[C@@H](C)CC
notes: flank added to the 11-residue stretch (surmised: last residue of the library's constant GQSGQ); CBS, human, around pY308, natural variant G307S; flank added to the 11-residue stretch (surmised: first residue of the library's constant GGQSG); source: synthetic peptide (SynPeptide, China)
As to B3, the Kd with Fyn SH2 domain (142-248) worked out at 185 nM.

B4: Syn-G2-2 (synthetic) (peptide)
peptide: Ac-QHNIHS[pY]INIPPG-NH2
notes: source: synthetic peptide (SynPeptide, China)
Molecule B4 gave a Kd with Grb2 SH2 domain of 3.99 nM.

B5: CD84 pY296 (peptide)
peptide: Ac-QAESRI[pY]DEILQG-NH2
notes: flank added to the 11-residue stretch (surmised: last residue of the library's constant GQSGQ); CD84, human, around pY296; flank added to the 11-residue stretch (surmised: first residue of the library's constant GGQSG); source: synthetic peptide (SynPeptide, China)
Take B5: the values for the Kd with Lyn SH2 domain (121-228) and with c-Src SH2 domain were 91 nM and 28.1 nM, respectively.

B6: Syn-G2-6 (synthetic) (peptide)
peptide: Ac-QHRLNN[pY]ENNRLG-NH2
notes: as for B4
B6 gave a Kd with Grb2 SH2 domain of 2250 nM.

B7: ACTB pY240 (peptide)
peptide: Ac-QSLEKS[pY]ELPDGG-NH2
SMILES: CC(=O)N[C@@H](CCC(N)=O)C(=O)N[C@@H](CO)C(=O)N[C@@H](CC(C)C)C(=O)N[C@@H](CCC(=O)O)C(=O)N[C@@H](CCCCN)C(=O)N[C@@H](CO)C(=O)N[C@@H](Cc1ccc(OP(=O)(O)O)cc1)C(=O)N[C@@H](CCC(=O)O)C(=O)N[C@@H](CC(C)C)C(=O)N1CCC[C@H]1C(=O)N[C@@H](CC(=O)O)C(=O)NCC(=O)NCC(N)=O
notes: flank added to the 11-residue stretch (surmised: last residue of the library's constant GQSGQ); ACTB, human, around pY240; flank added to the 11-residue stretch (surmised: first residue of the library's constant GGQSG); source: synthetic peptide (SynPeptide, China)
Regarding B7, the Kd with Fyn SH2 domain (142-248) was determined as 159 nM.

B8: ACTB pY240 P243L (peptide)
peptide: Ac-QSLEKS[pY]ELLDGG-NH2
SMILES: CC(=O)N[C@@H](CCC(N)=O)C(=O)N[C@@H](CO)C(=O)N[C@@H](CC(C)C)C(=O)N[C@@H](CCC(=O)O)C(=O)N[C@@H](CCCCN)C(=O)N[C@@H](CO)C(=O)N[C@@H](Cc1ccc(OP(=O)(O)O)cc1)C(=O)N[C@@H](CCC(=O)O)C(=O)N[C@@H](CC(C)C)C(=O)N[C@@H](CC(C)C)C(=O)N[C@@H](CC(=O)O)C(=O)NCC(=O)NCC(N)=O
notes: flank added to the 11-residue stretch (surmised: last residue of the library's constant GQSGQ); ACTB, human, around pY240, natural variant P243L; flank added to the 11-residue stretch (surmised: first residue of the library's constant GGQSG); source: synthetic peptide (SynPeptide, China)
In the experiment with Fyn SH2 domain (142-248), B8 came in with a Kd of 141 nM.

B9: Syn-G2-7 (synthetic) (peptide)
peptide: Ac-QIEVGT[pY]QNPHNG-NH2
notes: as for B4
For the molecule B9, binding in the experiment with Grb2 SH2 domain was put at a Kd of 3240 nM.

B10: SLAP-130 pY595 (peptide)
peptide: Ac-QDDQEV[pY]DDVAEG-NH2
notes: flank added to the 11-residue stretch (surmised: last residue of the library's constant GQSGQ); SLAP-130, human, around pY595; flank added to the 11-residue stretch (surmised: first residue of the library's constant GGQSG); also called SLAP-130 Y595; source: synthetic peptide (SynPeptide, China)
With B10, the Kd with Lyn SH2 domain (121-228) worked out at 240 nM; with c-Src SH2 domain, 191 nM.

B11: Syn-G2-5 (synthetic) (peptide)
peptide: Ac-QLGHQR[pY]HNITPG-NH2
notes: as for B4
In the experiment with Grb2 SH2 domain, B11 registered a Kd of 487 nM.
